Data reported in patent US20150086555A1.

Key:
Details in all cases: remark: other sources report otherwise
[1] = biological target: recombinant homotrimeric HA A/Japan/305/57 H2N2 (Influenza A virus A/Japan/305/1957(H2N2)); assay: protein microarray, purified IgG, trimeric HA
[2] = biological target: recombinant homotrimeric HA A/South Carolina/1/18 H1N1 (Influenza A virus A/South Carolina/1/18 (H1N1)); assay: protein microarray, purified IgG, trimeric HA
[3] = biological target: recombinant homotrimeric HA A/chicken/Vietnam/NCVD-016/08 H5N1 (Influenza A virus A/chicken/Vietnam/NCVD-016/2008(H5N1)); assay: protein microarray, purified IgG, trimeric HA
[4] = biological target: recombinant homotrimeric HA A/Hong Kong/1073/99 H9N2 (Influenza A virus A/Hong Kong/1073/99 (H9N2)); assay: protein microarray, purified IgG, trimeric HA
[5] = biological target: recombinant homotrimeric HA A/Wisconsin/67/05 H3N2 (Influenza A virus A/Wisconsin/67/2005(H3N2)); assay: protein microarray, purified IgG, trimeric HA
[6] = biological target: recombinant homotrimeric HA A/duck/Yangzhou/02/05 H8N4 (Influenza A virus A/duck/Yangzhou/02/2005(H8N4)); assay: protein microarray, purified IgG, trimeric HA
[7] = biological target: recombinant homotrimeric HA A/Solomon Islands/3/06 H1N1 (Influenza A virus A/Solomon Islands/3/2006(H1N1)); assay: protein microarray, purified IgG, trimeric HA
[8] = biological target: recombinant homotrimeric HA A/Netherlands/219/03 H7N7 (Influenza A virus A/Netherlands/219/03(H7N7)); assay: protein microarray, purified IgG, trimeric HA
[9] = biological target: recombinant soluble homotrimeric HA of A/Japan/305/57 (H2N2) (Influenza A virus A/Japan/305/1957(H2N2)); assay: HA microarray, BCC supernatant
[10] = biological target: recombinant soluble homotrimeric HA of A/swine/Ontario/01911-2/99 (H4N6) (Influenza A virus A/Swine/Ontario/01911-2/99 (H4N6)); assay: HA microarray, BCC supernatant
[11] = biological target: recombinant soluble homotrimeric HA of A/Wisconsin/67/05 (H3N2) (Influenza A virus A/Wisconsin/67/2005(H3N2)); assay: HA microarray, BCC supernatant
[12] = biological target: recombinant soluble homotrimeric HA of A/Solomon Islands/3/06 (H1N1) (Influenza A virus A/Solomon Islands/3/2006(H1N1)); assay: HA microarray, BCC supernatant
[13] = biological target: recombinant soluble homotrimeric HA of A/chicken/Vietnam/NCVD-016/08 (H5N1) (Influenza A virus A/chicken/Vietnam/NCVD-016/2008(H5N1)); assay: HA microarray, BCC supernatant
[14] = biological target: recombinant soluble homotrimeric HA of A/Netherlands/219/03 (H7N7) (Influenza A virus A/Netherlands/219/03(H7N7)); assay: HA microarray, BCC supernatant
[15] = biological target: recombinant soluble homotrimeric HA, A/Wisconsin/67/05 H3N2 (Influenza A virus A/Wisconsin/67/2005(H3N2)); assay: microarray, transfection SN IgG, trimeric HA
[16] = biological target: recombinant soluble homotrimeric HA, A/northern shoveler/California/HKWF115/07 H6N4 (Influenza A virus A/northern shoveler/California/HKWF115/2007(H6N1)); assay: microarray, transfection SN IgG, trimeric HA
[17] = biological target: recombinant soluble homotrimeric HA, A/duck/Yangzhou/02/05 H8N4 (Influenza A virus A/duck/Yangzhou/02/2005(H8N4)); assay: microarray, transfection SN IgG, trimeric HA
[18] = biological target: recombinant soluble homotrimeric HA, A/Japan/305/57 H2N2 (Influenza A virus A/Japan/305/1957(H2N2)); assay: microarray, transfection SN IgG, trimeric HA
[19] = biological target: recombinant soluble homotrimeric HA, A/Netherlands/219/03 H7N7 (Influenza A virus A/Netherlands/219/03(H7N7)); assay: microarray, transfection SN IgG, trimeric HA
[20] = biological target: recombinant soluble homotrimeric HA, A/chicken/Vietnam/NCVD-016/08 H5N1 (Influenza A virus A/chicken/Vietnam/NCVD-016/2008(H5N1)); assay: microarray, transfection SN IgG, trimeric HA
[21] = biological target: recombinant soluble homotrimeric HA, A/South Carolina/1/18 H1N1 (Influenza A virus A/South Carolina/1/18 (H1N1)); assay: microarray, transfection SN IgG, trimeric HA
[22] = biological target: recombinant trimeric HA of H1N1 A/California/04/09 (Influenza A virus A/California/04/2009 (H1N1))
[23] = biological target: recombinant soluble homotrimeric HA of A/northern shoveler/California/HKWF115/07 (H6) (Influenza A virus A/northern shoveler/California/HKWF115/2007(H6N1)); assay: HA microarray, BCC supernatant
[24] = biological target: recombinant soluble homotrimeric HA of A/Hong Kong/2108/03 (H9N2) (Influenza A virus A/HK/2108/2003(H9N2)); assay: HA microarray, BCC supernatant
[25] = biological target: recombinant soluble homotrimeric HA of A/Anhui/1/05 (H5N1) (Influenza A virus A/Anhui/1/2005(H5N1)); assay: HA microarray, BCC supernatant
[26] = biological target: recombinant soluble homotrimeric HA of A/Egypt/3300-NAMRU3/08 (H5N1) (Influenza A virus A/Egypt/3300-NAMRU3/2008(H5N1)); assay: HA microarray, BCC supernatant
[27] = biological target: recombinant soluble homotrimeric HA of A/Indonesia/5/05 (H5N1) (Influenza A virus A/Indonesia/5/2005(H5N1)); assay: HA microarray, BCC supernatant

B1: TCN-554 (5277_M05) (antibody, V domains shown)
VH: QVQLVQSGADLKKPGASVKVSCKASGYTFTDYYIHWVRQAPGQGLEWMGWINPESGDTKYAQKFQGRVTMTRDTSITTAYMELGRLRSDDTAVYYCARDVSTTWSWFAPWGQGTLVTVSS
VL: DIVMTQSPDSLAVSLGERATINCRSSQSIFHNSNNENYLAWYQQKPGQPPKLLIYWASTRESGVPDRFSGSGSGTDFTLTISSLQAEDVAVYFCQQYYNAPLTFGGGTKVEIK
Trimeric HA Binding: RLU [1]: 705 RLU | Trimeric HA Binding: RLU [2]: 166 RLU | Trimeric HA Binding: RLU [3]: 544 RLU | Trimeric HA Binding: RLU [4]: 539 RLU | Trimeric HA Binding: RLU [5]: 27100 RLU | Trimeric HA Binding: RLU [6]: 386 RLU | Trimeric HA Binding: RLU [7]: 1540 RLU | Trimeric HA Binding: RLU [8]: 342 RLU | Trimeric HA Binding: RLU [9]: 328 RLU | Trimeric HA Binding: RLU [10]: 78 RLU | Trimeric HA Binding: RLU [11]: 46500 RLU | Trimeric HA Binding: RLU [12]: 115 RLU | Trimeric HA Binding: RLU [13]: 250 RLU | Trimeric HA Binding: RLU [14]: 610 RLU | Trimeric HA Binding: RLU [15]: 25300 RLU | Trimeric HA Binding: RLU [16]: 3350 RLU | Trimeric HA Binding: RLU [17]: 5810 RLU | Trimeric HA Binding: RLU [18]: 2620 RLU | Trimeric HA Binding: RLU [19]: 4520 RLU | Trimeric HA Binding: RLU [20]: 2710 RLU | Trimeric HA Binding: RLU [21]: 1260 RLU

B2: Fab fragment of TCN-530 (5248_H10a) (Fab, V domains shown)
VH: QVQLVQSGAEVRKPGSSVKVSCKASGGPFMSYAIGWVRQAPGQGLEWMGGINPVFGRPHYAQKFQGRVTIATDDSTKTSYMELSSLTSEDTGMYYCASRYSRSSPGTFESWGQGTLVTVSS
VL: EIVMTQFPATLSVSPGERVTLSCRASQSVSNNLAWYQQKPGQPPRLLIYDASTRATGVPAKFSGTGSGTEFTLSISSLQSEDFAVYYCQQYHNWPPSYSFGLGTKLEIK
Kd [22]: 0.562 nM | koff [22]: 0.000287 s⁻¹ | kon [22]: 511000 M⁻¹ s⁻¹

B3: Fab fragment of TCN-534 (5249_B02) (Fab, V domains shown)
VH: QVQLVQSGAEVKKPGSSVKVSCRESGGTFNGYTITWVRQAPGQGLEWMGGIIPMMGTVNYAQKLQGRVTITTDYFTKTAYMDLNNLRSEDTAMYYCVKIRYTGQQLLWGQGTLVTVSS
VL: DIQMTQSPSTLSASIGDRVTITCRASQSIASWLAWYQQKPGKAPKLLIYEAVNLESGVPSRFSGSGSGTDFTLTISSLQPDDFATYFCQHYGTISQTFGGGTKVEIK
Kd [22]: 0.104 nM | koff [22]: 5.96e-05 s⁻¹ | kon [22]: 573000 M⁻¹ s⁻¹

B4: TCN-521 (3280_D18) (antibody, V domains shown)
VH: EVQLVQSGGGLVQPGGSLRLACVVSGFTVTSNYITWVRQAPGKGLEWVSVIYSHGRAYYSASVNGRFTISRHTSKNTVYLEMNSLRPEDTAVYYCAGGGLVGGYDEYFFDYWGQGTLATVSS
VL: ETVLTQSPGTLSLTPGERATLSCRVGQSVSGSHLAWYQQKPGQAPRLLIYGASSRATGIPDRFGGSVSGTDFTLTISRLEPEDSAVYYCQQYGDSRYTFGQGTKLEIK
Trimeric HA Binding: RLU [23]: 48000 RLU | Trimeric HA Binding: RLU [9]: 6730 RLU | Trimeric HA Binding: RLU [24]: 93 RLU | Trimeric HA Binding: RLU [12]: 39600 RLU | Trimeric HA Binding: RLU [25]: 487 RLU | Trimeric HA Binding: RLU [26]: 47900 RLU | Trimeric HA Binding: RLU [13]: 32400 RLU | Trimeric HA Binding: RLU [14]: 2500 RLU | Trimeric HA Binding: RLU [27]: 31500 RLU

B5: Fab fragment of TCN-535 (5246_P19) (Fab, V domains shown)
VH: QVQLVQSGSEVKKPGTSVKVSCTASGSVFTNYGISWVRQAPGQGLEWMGGIIPLFGAAKYAQKFQGRVTITADESTKTVYMELSRLTSKDTAIYFCAKAPRVYEYYFDQWGQGTPVTVSS
VL: EIVLTQSPGTLSLSPGERATLSCRASQSVSSSQLAWYQQKPGQAPRLIIYGASTRATGIPDRFSGSGSGTDFTLTIGRLEPEDFAVFFCQQYSTSPPTFGQGTKVDFK
Kd [22]: 0.165 nM | koff [22]: 0.000163 s⁻¹ | kon [22]: 987000 M⁻¹ s⁻¹

B6: Fab fragment of TCN-523 (5248_A17) (Fab, V domains shown)
VH: QVQLVQSGAEVKKPGSSVKVSCKASGGSFSNYAFSWVRQAPGQGLEWMGGTIPLLGTTNYAQKFQGRVTISADQFTSTAYMELGSLRSEDTAVYYCTRRKMTTAFDSWGQGTLVTVSS
VL: QPVLTQPPSASASLGASVTLTCTLSSAYSNYKVDWYQQRPGKGPRFVMRVGTGGIVGSKGDGIPDRFSVLGSGLNRYLTIKNIQEEDESDYHCGADHGSGSNFVSPYVFGGGTKLTVL
Kd [22]: 0.09 nM | koff [22]: 5.1e-05 s⁻¹ | kon [22]: 540000 M⁻¹ s⁻¹

B7: Fab fragment of TCN-522 (3212_I12) (Fab, V domains shown)
VH: QVQLQQWGAGLLKPSETLSLTCTVSGGSLTDYSWNWIRQPPGKGLEWIGDTLHNGYTNYNPSLRGRVSISIDTSKNQVSLRLTSVTAADTALYYCARGSGGYGGFDYFGKLRTWDFWGQGTLVTVSS
VL: DIQLTQSPSSLSASVGDRVTITCRASQGIRNDLGWYQQKPGNAPKRLIFGASSLQSGVPSRFSGSGSGTEFTLTISSLQPEDFATYYCLQHNSYPYTFGQGTKLEIK
Kd [22]: 0.55 nM | koff [22]: 3.8e-05 s⁻¹ | kon [22]: 69800 M⁻¹ s⁻¹
